Among the data in article PMC2132943 are stoichiometry N values, retold here.

In the assay the target is T1, CXCR4 receptor (human (endogenous in HEK-293)), P61073.
T1 chain: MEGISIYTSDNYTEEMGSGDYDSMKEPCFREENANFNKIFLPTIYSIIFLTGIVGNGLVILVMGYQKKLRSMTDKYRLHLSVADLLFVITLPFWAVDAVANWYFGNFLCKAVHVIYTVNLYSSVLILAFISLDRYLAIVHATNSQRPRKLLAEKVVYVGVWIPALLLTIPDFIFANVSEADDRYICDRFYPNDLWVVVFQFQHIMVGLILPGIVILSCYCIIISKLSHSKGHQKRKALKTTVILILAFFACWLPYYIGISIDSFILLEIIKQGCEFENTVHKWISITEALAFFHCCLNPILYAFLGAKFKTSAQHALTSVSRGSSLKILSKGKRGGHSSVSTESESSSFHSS
Put plainly: cross-linking. The note with it: remark: other sources report otherwise.

B1: CXCR4 receptor, P61073 1-352 (receptor)
chain: MEGISIYTSDNYTEEMGSGDYDSMKEPCFREENANFNKIFLPTIYSIIFLTGIVGNGLVILVMGYQKKLRSMTDKYRLHLSVADLLFVITLPFWAVDAVANWYFGNFLCKAVHVIYTVNLYSSVLILAFISLDRYLAIVHATNSQRPRKLLAEKVVYVGVWIPALLLTIPDFIFANVSEADDRYICDRFYPNDLWVVVFQFQHIMVGLILPGIVILSCYCIIISKLSHSKGHQKRKALKTTVILILAFFACWLPYYIGISIDSFILLEIIKQGCEFENTVHKWISITEALAFFHCCLNPILYAFLGAKFKTSAQHALTSVSRGSSLKILSKGKRGGHSSVSTESESSSFHSS
For the molecule B1, the stoichiometry N – broadly, a count of units in the complex or per binding partner – was 2.
